Target: T1, EZH2 (UniProt Q15910 1-746, limits assumed)
T1 construct: Endogenous protein immunoprecipitated from U266 cell chromatin; also called polycomb complex methyl-transferase EZH2
Test: ChIP-reChIP qPCR in U266 cells (IP against RARalpha, then EZH2)
Protocol: Chromatin immunoprecipitation (ChIP) combined with real-time quantitative polymerase chain reaction (ChIP-RQ-PCR) was performed for anti-H3K4me3, anti-H3K27me3, anti-RNA polymerase II CTD phospho Ser2, anti-RNA polymerase II CTD phospho Ser5, anti-EZH2, anti-RARα and control IgG as previously described²⁵. For Re-ChIP assays, the wash and chromatin elution steps of the first IP were performed with protease inhibitor-containing buffers and the first elution was performed by incubating the magnetic beads in 10 mM DTT/TE for 30 min at 37° C. The eluate of the first IP was diluted at least 20× in ChIP dilution buffer, followed by a second IP according to the same protocol as above. Expression of immunoprecipitated DNA was calculated, either relative to input DNA or DNA immunoprecipitated by control IgG antibody, using the ΔΔCT method.

T1 sequence (Q15910 whole entry): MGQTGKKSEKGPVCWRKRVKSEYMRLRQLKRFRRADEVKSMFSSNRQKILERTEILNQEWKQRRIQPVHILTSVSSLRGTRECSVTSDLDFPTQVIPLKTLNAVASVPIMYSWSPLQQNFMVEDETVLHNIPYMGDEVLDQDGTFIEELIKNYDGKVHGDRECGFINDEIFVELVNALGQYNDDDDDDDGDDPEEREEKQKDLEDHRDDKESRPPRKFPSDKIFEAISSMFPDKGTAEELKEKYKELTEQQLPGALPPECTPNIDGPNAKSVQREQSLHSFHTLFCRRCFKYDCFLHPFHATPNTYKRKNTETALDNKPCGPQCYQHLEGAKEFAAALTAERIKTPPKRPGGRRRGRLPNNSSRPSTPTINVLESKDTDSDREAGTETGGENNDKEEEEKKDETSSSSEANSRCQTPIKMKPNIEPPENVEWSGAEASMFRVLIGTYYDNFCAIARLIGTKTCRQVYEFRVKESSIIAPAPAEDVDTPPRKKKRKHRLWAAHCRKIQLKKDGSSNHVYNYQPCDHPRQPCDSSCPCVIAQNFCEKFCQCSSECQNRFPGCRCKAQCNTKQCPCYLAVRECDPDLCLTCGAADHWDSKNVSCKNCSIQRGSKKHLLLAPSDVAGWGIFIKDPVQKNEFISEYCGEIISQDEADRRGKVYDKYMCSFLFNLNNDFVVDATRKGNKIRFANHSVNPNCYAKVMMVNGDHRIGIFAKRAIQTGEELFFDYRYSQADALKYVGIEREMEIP

binding result: binds
B1: RARalpha (receptor, UniProt P10276 1-462, looked up)
chain: MASNSSSCPTPGGGHLNGYPVPPYAFFFPPMLGGLSPPGALTTLQHQLPVSGYSTPSPATIETQSSSSEEIVPSPPSPPPLPRIYKPCFVCQDKSSGYHYGVSACEGCKGFFRRSIQKNMVYTCHRDKNCIINKVTRNRCQYCRLQKCFEVGMSKESVRNDRNKKKKEVPKPECSESYTLTPEVGELIEKVRKAHQETFPALCQLGKYTTNNSSEQRVSLDIDLWDKFSELSTKCIIKTVEFAKQLPGFTTLTIADQITLLKAACLDILILRICTRYTPEQDTMTFSDGLTLNRTQMHNAGFGPLTDLVFAFANQLLPLEMDDAETGLLSAICLICGDRQDLEQPDRVDMLQEPLLEALKVYVRKRRPSRPHMFPKMLMKITDLRSISAKGAERVITLKMEIPGSMPPLIQEMLENSEGLDTLSGQPGGGGRDGGGLAPPPGSCSPSLSPSSNRSSPATHSP
notes: Endogenous protein immunoprecipitated from U266 cell chromatin

Reference: patent publication US20210108176A1 (IMPERIAL COLLEGE INNOVATIONS, published 2021)
